# Experimental data from paper PMC7253601, “Rules of Expansion: an Updated Consensus Operator Site for the CopR-CopY Family of Bacterial Copper Exporter System Repressors” (mSphere, 2019).
# B1: SP_0090 1 (dsDNA)
# DNA 1: TGATTTAGGACATTTGTTTGATAGTGG
# DNA 2: CCACTATCAAACAAATGTCCTAAATCA
# B2: SP_0090 2 (dsDNA)
# DNA 1: GAGTATACTAATAATGTAATCGTTATC
# DNA 2: GATAACGATTACATTATTAGTATACTC
# B3: SP_0045 (dsDNA)
# DNA 1: GGTGAACTAACAGATGTTTACGAAATT
# DNA 2: AATTTCGTAAACATCTGTTAGTTCACC
# B4: SP_0530 (dsDNA)
# DNA 1: ATTTGAGGAACAAATGTACGTTTATAA
# DNA 2: TTATAAACGTACATTTGTTCCTCAAAT
# B5: SP_1433 (dsDNA)
# DNA 1: GTAATTATAACAGATGTATAATAGAAA
# DNA 2: TTTCTATTATACATCTGTTATAATTAC
# B6: SP_1863 (dsDNA)
# DNA 1: ATGAATAAAACAATTGTAACACTCATC
# DNA 2: GATGAGTGTTACAATTGTTTTATTCAT
# B7: SP_2073 (dsDNA)
# DNA 1: AAGGCGGAAACATGTGTCAATGACTTG
# DNA 2: CAAGTCATTGACACATGTTTCCGCCTT
# B8: Streptococcus thermophilus CopY (natural protein, S. thermophilus, UniProt Q5M352 1-143, looked up)
# chain: MLAISSAEWEVMRVLWAKGQATSSEIIEILAKKLDWSASTVKTLIGRLADKGYLTSQRQGRGFIYQASLGEDEAIFQALEAVFDKICLTKHSDLLGQLIAKTPMTQADVDKLQALLLAKVPVDQVVCDCVPGQCACGHHMEVN
# notes: CopY (CopR-CopY family cop operon repressor), Streptococcus thermophilus; cloned from genomic DNA; also called S. thermophilus cop operon repressor; CopR-CopY; source: recombinant (pMCSG7 vector), purified (IMAC, TEV cleavage, subtractive IMAC, SEC); not shown: His6, N-terminal, cleaved
# B9: Enterococcus hirae CopY E86D (natural protein)
# chain: MEEKRVLIKISDSEWEVMRVIWTLGQANAQQITQILADSMDWKVATVKTLLGRLVKKEALWTEQEGKKFIYHPAVSEMENVRSATDNLFSHICAKRVGATIADLVEEATLTQEDIQQIMKQLNKKEPVETIECNCIPGQCECKKQ
# notes: CopY, cop operon repressor, Enterococcus hirae; cloned from genomic DNA; the methods call the gene copR; The wild type was cut by TEV inside the protein and was used uncleaved; also called E. hirae cop repressor; cleaved E86D protein; source: recombinant (pMCSG7 vector), purified (IMAC, TEV cleavage, subtractive IMAC, SEC); not shown: His6, N-terminal, cleaved
# B10: wild type two-operator DNA (BLI) (dsDNA)
# DNA 1: TAATTGACAAATGTAGATTTTAAGAGTATACTGATGAGTGTAATTGACAAATGTAGATTTT
# DNA 2: AAAATCTACATTTGTCAATTACACTCATCAGTATACTCTTAAAATCTACATTTGTCAATTA
# Biological target: T1, CopY (S. pneumoniae) (Streptococcus pneumoniae, UniProt A0ACD7PQP7 1-131)
# Assay: BLI; 3 uM CopY; BLI: 50 mM Tris pH 7.4, 150 mM NaCl, 4% glycerol, 1 mM TCEP, 0.1% BSA, 26 C; EMSA: Tris-borate without EDTA, 4 C, 5% PAGE
# Conditions: protein: recombinant; tags: N-terminal 6xHis removed by TEV (pMCSG7; also tested uncleaved); chain copies: 2; label: 5' biotin on forward strand; blunt
row,Molecule,binding result
1,B1,no binding
2,B2,no binding
3,B3,no binding
4,B4,no binding
5,B5,no binding
6,B6,no binding
7,B7,no binding

# Biological target: the molecule itself
# Assay: SEC; Superdex 200; 20 mM Tris (pH 8), 200 mM NaCl, 1 mM TCEP; elution volume compared to an SEC standard (Bio-Rad); on ice or at 4°C
# Conditions: not given
row,Molecule,stoichiometry N
1,B8,2
2,B9,2

# Biological target: CopY (S. pneumoniae) (Streptococcus pneumoniae (TIGR4?)) (UniProt A0ACD7PQP7)
# Assay: BLI
# Conditions: BLI: 50 mM Tris pH 7.4, 150 mM NaCl, 4% glycerol, 1 mM TCEP, 0.1% BSA, 26 C; EMSA: Tris-borate without EDTA, 4 C, 5% PAGE
row,Molecule,Kd [nM]
1,full palindrome (A13C),39.6
2,19 bp T to C (operator position 3),40.4
3,E. hirae proximal operator,164
4,19 bp (19 of 21 repeat bases),37.1
5,16 bp (16 of 21 repeat bases kept: ATTGACAAATGTAGAT),360
6,14 bases (14 of 21 repeat bases),> 3000

# Biological target: Streptococcus pneumoniae CopY (S. pneumoniae)
# Assay: SEC; Superdex 200; 20 mM Tris (pH 8), 200 mM NaCl, 1 mM TCEP; elution volume compared to an SEC standard (Bio-Rad); on ice or at 4°C
# Conditions: not given
row,Molecule,stoichiometry N
1,Streptococcus pneumoniae CopY (natural protein),2

# Biological target: T1, CopY (S. pneumoniae)
# Assay: BLI; BLI: 50 mM Tris pH 7.4, 150 mM NaCl, 4% glycerol, 1 mM TCEP, 0.1% BSA, 26 C; EMSA: Tris-borate without EDTA, 4 C, 5% PAGE
# Conditions: protein: recombinant; tags: N-terminal 6xHis removed by TEV (pMCSG7; also tested uncleaved); chain copies: 2; label: 5' biotin on forward strand; blunt
row,Molecule,Kd [nM]
1,B10,28.1 ± 0.2
